Assay results reported in patent US8324344B2, “Membrane transduction peptides and methods of delivering material to a target cell” (STC.UNM, priority 2008, dated 2012).
Entries after “also recorded” stand apart in the source; their conditions may differ.

What was measured:
[1] = tested on: HT-1080 cells; assay: Internalization of offered recombinant proteins in HT-1080 cells, immunoblotting of cytosolic and nuclear fractions; assay type: cell-based, human; conditions: 1 μM
Protocol: HT-1080 cells were grown in six-well plates under standard conditions. At confluence, the cells were treated with fresh medium containing either wild-type TFPI-2, TFPI-2^1-188, R24Q KD1, R24K KD1, or R24K KD1-CT as previously described (Kempaiah and Kisiel, Apoptosis, 2008;13:702-715). Briefly, duplicate wells were treated with purified proteins (1 μM final concentration) and incubated at either 37° C. or 4° C. for different time periods. Two wells were also treated with phosphate-buffered saline (PBS) at each temperature to serve as a control. At selected time points, the media was removed and the cells were rinsed once with PBS. The cells were then washed with 1 M NaCl/PBS for 30 minutes with gentle shaking to dissociate cell surface-bound proteins (Iino et al., Arterioscler. Thromb. Vasc. Biol., 1998;18:40-46). Finally, the cells were rinsed once with PBS, trypsinized and harvested for the preparation of cell lysates and cell fractions.
To prepare total cell lysates, 1-3×10^6 cells were lysed by sonication in 500 μl of lysis buffer containing of 125 mM Tris-HCl (pH 6.8), 2% SDS, 10% glycerol, 50 mM sodium phosphate, 1 mM phenylmethanesulphonylfluoride (PMSF) and protease inhibitor cocktail. The lysate was kept on ice for about 10 minutes, centrifuged for 15 minutes at 10,000×g at 4° C., and the supernatant recovered. To prepare nuclear and cytosolic fractions, approximately 2×10^6 cells were harvested and washed twice with cold PBS by centrifugation at 600×g in a Beckman J-6M/E centrifuge for seven minutes at 4° C. Five volumes of ice cold cytosolic buffer (10 mM Hepes pH 7.4, 0.33 M sucrose, 1 mM MgCl2, 0.1% Triton X-100 and protease inhibitor cocktail) was added to the cells and incubated on ice for 15 minutes. The cytosolic fraction was collected by centrifugation at 900×g for five minutes at 4° C. The resulting undissolved pellet was washed twice with cytosolic buffer followed by centrifugation at 900×g for five minutes at 4° C. Finally, the resulting pellet was resuspended in five volumes of ice cold buffer containing 0.45 M NaCl in 10 mM Hepes (pH 7.4) and protease inhibitor cocktail. The suspension was incubated on ice for an additional 15 minutes to dissolve the nucleus, and subsequently centrifuged at 18,000×g for five minutes at 4° C. The resulting supernatant was collected as the nuclear extract. All samples were boiled for three minutes in the presence of 5% SDS and stored at −20° C. until use.
The cell lysate, cytosol and nuclear fractions were subjected to SDS-PAGE using 4-20% polyacrylamide gradient gels. […] The membranes were then probed with specific antibodies dissolved in fresh blocking buffer. Immunoreactive proteins were identified using HRP-conjugated secondary antibodies and a chemiluminescent reagent system essentially as described (Kempaiah et al., Mol. Cancer, 2007;6:20). The integrity of the cytosolic and nuclear fractions was verified using anti-α-tubulin and anti-histone-H1 antibodies, respectively (Guo et al., Am. J Physiol. Cell Physiol., 2007;292:2095-2102).
The relative intensity of the Western blot bands were quantified using QUANTISCAN software (Biosoft, Cambridge, U.K.). The intensities are reported in arbitrary units (A.U.) obtained by subtracting the background value from the corresponding band's mean value.

[2] = tested on: HT-1080 cells; assay: Localization of protein in stably-transfected overexpressing HT-1080 cells, immunoblotting and immunocytochemistry; assay type: cell-based, human; conditions: HT-1080 cells stably transfected with cDNA (FIG. 3, FIG. 4C, 4D)
Protocol: HT-1080 and HEK 293 cell lines were stably transfected to overexpress either wild-type human TFPI-2 or a mutant TFPI-2 construct lacking the carboxy-terminal tail (TFPI-2^1-188), and were maintained as described (Chand et al., Blood, 2004;103:1069-1077, Du et al., Arch. Biochem. Biophys:, 2003;417:96-104). An anti-human TFPI-2 murine monoclonal antibody designated as SK-9 was prepared as described (Du et al., Arch. Biochem. Biophys., 2003;417:96-104) and coupled to Affi-Gel 10 according to the manufacturer's recommendation. Recombinant human TFPI-2 was purified from HEK 293 serum-free conditioned media by a two-step chromatography procedure involving heparin-agarose (Sprecher et al., Proc. Natl. Acad. Sci. USA., 1994;91:3353-3357) and SK-9-AffiGel 10 affinity chromatography. In the latter procedure, heparin-agarose purified TFPI-2 was dialyzed against 50 mM Tris-HCl (pH 7.5) and applied to the SK-9-AffiGel 10 column equilibrated at room temperature with this buffer. After a wash step with 50 mM Tris-HCl (pH 7.5)/0.5 M NaCl, TFPI-2 was eluted with 0.1 M glycine (pH 2.5)/0.5 M NaCl into one-tenth volume of 1 M Tris-HCl (pH 8.8) to immediately neutralize the pH 2.5 glycine. […]

[3] = tested on: human tumor cell lines; conditions: several tumor cell lines, exogenously offered; Kempaiah and Kisiel 2008; cited from earlier work
[4] = tested on: importin-α; assay: Co-immunoprecipitation assay of TFPI-2 with importin-α from HT-1080 cell lysates; assay type: binding, human; conditions: lysates of TFPI-2-treated (1 μM) HT-1080 cells or HT-1080 cells overexpressing TFPI-2; SK-9 or anti-importin-α antibody (FIG. 5)
From the text: To identify the adapter protein(s) involved in transporting TFPI-2 to the nucleus, we performed co-immunoprecipitation studies using the PROFOUND co-immunoprecipitation kit and cell lysates derived from either vehicle-treated HT-1080 cells, TFPI-2-treated HT-1080 cells or HT-1080 cells overexpressing TFPI-2. Approximately 4.5×10^6 cells from each system were washed twice with PBS, and the lysates prepared in the presence of proteinase inhibitors using the mammalian protein extraction reagent provided in the kit. Complexes of importin-α and TFPI-2 were removed from the lysate by co-immunoprecipitation according to the manufacturer's instructions. In this procedure, antibodies specific for either importin-α or TFPI-2 (SK-9) were covalently linked at room temperature for 16 hours to an amine-reactive gel in coupling buffer (8 mM sodium phosphate/2 mM potassium phosphate/10 mM KCl/140 mM NaCl [pH 7.4]). Cell lysates from the above preparations were added to the antibody-coupled columns and incubated at 4° C. for 18 hours with gentle end-over-end mixing. The columns were then washed several times with coupling buffer containing 0.5 M NaCl to remove non-specifically bound proteins, and finally eluted with the elution buffer provided in the kit. […]

Row | Molecule | Internalization to cytosol and nucleus of HT-1080 cells ([1]; 37° C., up to 30 minutes, immunoblot (FIG. 4A)) | Localization of overexpressed protein [2] | Induction of caspase-mediated apoptosis [3] | Amount localized in the nucleus in 60 minutes at 4° C. (temperature dependence) ([1]; 4° C. versus 37° C. (FIG. 1C)) | Time of maximal cytosolic and nuclear localization ([1]; 24-72 hours incubation) | Intracellular distribution of internalized protein ([1]; 24-72 hours incubation, immunoblot (FIG. 1)) | Rate of internalization and translocation to the nucleus ([1]; 37° C., within the first 15 minutes of offering (FIG. 1A)) | Complex formation with importin-α (co-immunoprecipitation) [4]
1 | TFPI-2^1-188: TFPI-2 construct lacking the carboxy-terminal tail (amino acids 189-213 of SEQ ID NO:1) (protein, listed as Homo sapiens, tissue factor pathway inhibitor-2) DAAQEPTGNNAEICLLPLDYGPCRALLLRYYYDRYTQSCRQFLYGGCEGNANNFYTWEACDDACWRIEKVPKVCRLQVSVDDQCEGSTEKYFFNLSSMTCEKFFSGGCHRNRIENRFPDEATCMGFCAPKKIPSFCYSPKDEGLCSANVTRYYFNPRYRTCDAFTYTGCGGNDNNFVSREDCKRACAK | is not internalized as readily to either the cytosol or nucleus; also recorded: slowly internalized, but failed to be transported to the nucleus | failed to demonstrate nuclear localization; also recorded: confined to the cytoplasm |  |  |  |  |  | 
2 | TFPI-2: Human tissue factor pathway inhibitor-2, a 32 kDa Kunitz-type serine proteinase inhibitor (SEQ ID NO:1), recombinant from HEK 293 (protein, listed as Homo sapiens, tissue factor pathway inhibitor-2) DAAQEPTGNNAEICLLPLDYGPCRALLLRYYYDRYTQSCRQFLYGGCEGNANNFYTWEACDDACWRIEKVPKVCRLQVSVDDQCEGSTEKYFFNLSSMTCEKFFSGGCHRNRIENRFPDEATCMGFCAPKKIPSFCYSPKDEGLCSANVTRYYFNPRYRTCDAFTYTGCGGNDNNFVSREDCKRACAKALKKKKKMPKLRFASRIRKIRKKQF |  | cytosolic and nuclear localization of TFPI-2 | induce caspase-mediated apoptosis | roughly equivalent to that observed in five minutes at 37 °C | 48 h | internalized and distributed in both the cytosolic and the nuclear fractions | rapidly internalized by these cells and translocated to the nucleus within minutes of offering; also recorded: rapidly internalized by HT-1080 cells and efficiently translocated to the nucleus | complexes of TFPI-2 and importin-α were immunoprecipitated by each antibody; also recorded: formed complexes with importin-α
